Results from PMC6925134.

Assays:
RNF208 [1] = target: RNF208 (UniProt Q9H0X6); assay: anti-Flag co-IP, immunoblot; details: reference: wild type; sites S39
RNF208 [2] = target: RNF208 (UniProt Q9H0X6); assay: anti-Flag co-IP, Myc immunoblot; details: reference: wild type; sites S39

Vimentin (from UniProt P08670) S39A
binding against the reference (RNF208 [1]): weaker
binding against the reference (RNF208 [2]): lost
